Patent US6468985B1, “Retinoblastoma protein-interacting zinc finger proteins” (The Burnham Institute, priority 1994, dated 2002)
Blank lines part the entries; values can stand above or below the molecule they belong to.

Columns and labels:
[1] = test system: SK-MEL-23 melanoma cell line; test: RIZ D283 allele transcript expression after demethylating agent; type: cell-based, human; conditions: 3 uM, cultured 3 to 6 days
Protocol: RNA samples from the 20 heterozygous melanoma cell lines were sequenced to determine if both alleles were transcribed in the cell or if only one allele was transcribed (ie. monoallelic expression). Sequencing was performed on DNA products produced by reverse transcription-PCR (RT-PCR) amplification using specific RIZ primers. RT-PCR amplification was performed according to the manufacturer's instructions (GeneAmp RNA PCR kit; Perkin Elmer). A 640 bp fragment encoding RIZ exons 5-7 was obtained from transcription of 1 μg of total RNA using the SSO 82 primer (SEQ ID NO: 93) and PCR amplification using the SSO 24 primer (5′[…]3′; SEQ ID NO: 106) and the SSO 82 primer (SEQ ID NO: 93). The amplified fragment was gel purified and sequenced using primer SSO 82 and a CircumVent™ Thermal Cycle DNA Sequencing kit (New England Biolabs; Beverly Mass.). The sequencing products were analyzed on a […] sequencing gel.
The SK-MEL-23 melanoma cell line was cultured for 3 to 6 days with 3 uM of the demethylating agent 5-azacytidine.

56 kD fragment of Rb = biological target: T1, 56 kD fragment of Rb (Homo sapiens, UniProt P06400); test: binding of 35S-labeled RIZ fragments to 56 kD Rb, immunoprecipitation with anti-Rb antiserum
T1 construct: p56 Rb: 56 kD fragment of Rb from a.a. position 379-928; made in house
T1 sequence (P06400 379-928): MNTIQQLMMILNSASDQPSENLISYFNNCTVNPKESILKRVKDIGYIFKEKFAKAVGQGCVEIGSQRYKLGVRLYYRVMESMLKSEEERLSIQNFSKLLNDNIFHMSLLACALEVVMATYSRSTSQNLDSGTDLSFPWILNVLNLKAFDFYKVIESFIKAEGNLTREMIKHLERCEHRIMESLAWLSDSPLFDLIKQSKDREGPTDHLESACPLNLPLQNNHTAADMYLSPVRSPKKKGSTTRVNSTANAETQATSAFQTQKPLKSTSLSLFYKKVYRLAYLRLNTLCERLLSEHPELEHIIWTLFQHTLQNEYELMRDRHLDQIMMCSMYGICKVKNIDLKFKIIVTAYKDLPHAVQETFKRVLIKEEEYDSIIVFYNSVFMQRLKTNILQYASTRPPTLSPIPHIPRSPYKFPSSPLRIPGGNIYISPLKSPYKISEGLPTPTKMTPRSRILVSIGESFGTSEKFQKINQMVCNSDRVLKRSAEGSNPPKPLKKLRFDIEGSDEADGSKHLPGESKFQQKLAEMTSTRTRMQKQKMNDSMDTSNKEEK
Protocol: To characterize the interaction between RIZ and Rb, a ^35S-labeled fragment of rat RIZ from amino acid position 245-883 (RIZ (245-883)) was produced by subcloning the 1.9 kb insert of clone 7.1 into PBKS+ (Stratagene) to yield plasmid pBKS+7.1. […] The larger size obtained by SDS-PAGE is likely due to anomalous mobility of the RIZ fragment on the gel.
A 56 kD fragment of Rb produced by bacterial expression from p56Rb plasmid, as described previously (Huang et al., supra, 1991), was tested for binding to radiolabeled RIZ (245-883). Binding was detected by immunoprecipitation with an anti-Rb antiserum and Protein A-Sepharosew™ (Huang et al., supra, 1990), which is incorporated herein by reference; and Huang et al., supra, 1991) followed by SDS-PAGE and autoradiography (see Harlow and Lane, supra, 1988). The rabbit anti-Rb antiserum was produced to purified p56Rb using previously described methods (see Harlow and Lane, supra, 1988).
The amount of binding of RIZ by Rb in the immunoprecipitation reaction was dependent on the concentration of Rb added. Full binding of ^35S-labeled RIZ (245-883) was achieved by 10 nM Rb but not 3.3 nM Rb (not shown). […]
Binding between labeled RIZ (1-575) and the glycine mutant with 33 nM Rb was evaluated by immunoprecipitation with anti-Rb antiserum followed by SDS-PAGE and autoradiography.

full length RIZ = biological target: T2, full length RIZ (Rattus norvegicus, UniProt Q63755); test: RIZ homo-oligomer formation; type: binding
T2 construct: made in house; host or cells: in vitro translation (35S label; method not repeated for this protein)
T2 sequence (Q63755 whole entry): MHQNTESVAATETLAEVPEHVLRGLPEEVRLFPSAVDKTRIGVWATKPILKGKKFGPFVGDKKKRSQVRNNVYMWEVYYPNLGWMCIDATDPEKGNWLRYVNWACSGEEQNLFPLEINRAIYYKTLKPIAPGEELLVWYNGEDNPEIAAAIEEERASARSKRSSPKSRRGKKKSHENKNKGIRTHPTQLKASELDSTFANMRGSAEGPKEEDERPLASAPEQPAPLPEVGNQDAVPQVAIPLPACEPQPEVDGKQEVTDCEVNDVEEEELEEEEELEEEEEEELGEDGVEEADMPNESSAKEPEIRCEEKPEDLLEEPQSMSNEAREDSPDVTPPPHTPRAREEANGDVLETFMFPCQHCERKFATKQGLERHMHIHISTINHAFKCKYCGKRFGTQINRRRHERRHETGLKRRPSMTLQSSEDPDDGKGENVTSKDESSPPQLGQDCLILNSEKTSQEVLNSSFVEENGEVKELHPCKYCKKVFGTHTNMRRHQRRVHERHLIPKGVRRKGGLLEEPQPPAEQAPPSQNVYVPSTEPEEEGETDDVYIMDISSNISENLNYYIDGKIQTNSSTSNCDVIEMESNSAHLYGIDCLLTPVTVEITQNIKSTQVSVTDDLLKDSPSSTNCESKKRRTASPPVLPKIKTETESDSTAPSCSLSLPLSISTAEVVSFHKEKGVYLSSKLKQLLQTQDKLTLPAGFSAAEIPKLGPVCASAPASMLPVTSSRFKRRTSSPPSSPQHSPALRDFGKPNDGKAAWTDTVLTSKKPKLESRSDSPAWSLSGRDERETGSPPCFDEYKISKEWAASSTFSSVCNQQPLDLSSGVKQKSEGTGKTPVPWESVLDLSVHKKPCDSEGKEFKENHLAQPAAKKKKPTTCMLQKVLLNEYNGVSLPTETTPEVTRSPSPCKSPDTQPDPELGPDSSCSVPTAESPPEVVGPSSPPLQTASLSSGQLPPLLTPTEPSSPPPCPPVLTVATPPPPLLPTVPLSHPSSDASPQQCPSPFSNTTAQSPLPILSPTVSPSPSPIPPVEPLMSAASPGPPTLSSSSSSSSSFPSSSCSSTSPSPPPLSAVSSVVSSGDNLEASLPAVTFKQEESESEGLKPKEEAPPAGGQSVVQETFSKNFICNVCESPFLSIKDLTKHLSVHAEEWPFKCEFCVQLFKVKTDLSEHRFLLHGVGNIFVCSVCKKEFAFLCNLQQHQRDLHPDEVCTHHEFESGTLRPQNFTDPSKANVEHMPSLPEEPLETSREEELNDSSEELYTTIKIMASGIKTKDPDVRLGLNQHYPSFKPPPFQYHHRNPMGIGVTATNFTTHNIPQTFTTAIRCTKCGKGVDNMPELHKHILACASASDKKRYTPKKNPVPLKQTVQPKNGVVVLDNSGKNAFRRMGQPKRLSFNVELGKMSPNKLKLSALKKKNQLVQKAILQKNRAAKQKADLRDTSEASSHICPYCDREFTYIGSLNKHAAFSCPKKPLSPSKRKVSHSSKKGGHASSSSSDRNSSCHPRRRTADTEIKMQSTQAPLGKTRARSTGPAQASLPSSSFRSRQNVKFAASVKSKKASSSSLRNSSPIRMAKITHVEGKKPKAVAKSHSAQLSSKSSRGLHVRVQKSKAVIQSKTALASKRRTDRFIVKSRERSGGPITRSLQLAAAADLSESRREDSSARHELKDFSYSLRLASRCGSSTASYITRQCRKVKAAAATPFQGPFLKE

[2] = biological target: T3, Rb from HT1080 cell extract (Homo sapiens, UniProt P06400); test: GST-RIZ (215-462) glutathione-agarose pull-down of Rb from cell extract, anti-Rb immunoblot; type: binding; conditions: 4 μg GST-RIZ (215-462)
T3 construct: endogenous in cells; host or cells: HT1080 cells (lysate)
T3 sequence (P06400 1-928): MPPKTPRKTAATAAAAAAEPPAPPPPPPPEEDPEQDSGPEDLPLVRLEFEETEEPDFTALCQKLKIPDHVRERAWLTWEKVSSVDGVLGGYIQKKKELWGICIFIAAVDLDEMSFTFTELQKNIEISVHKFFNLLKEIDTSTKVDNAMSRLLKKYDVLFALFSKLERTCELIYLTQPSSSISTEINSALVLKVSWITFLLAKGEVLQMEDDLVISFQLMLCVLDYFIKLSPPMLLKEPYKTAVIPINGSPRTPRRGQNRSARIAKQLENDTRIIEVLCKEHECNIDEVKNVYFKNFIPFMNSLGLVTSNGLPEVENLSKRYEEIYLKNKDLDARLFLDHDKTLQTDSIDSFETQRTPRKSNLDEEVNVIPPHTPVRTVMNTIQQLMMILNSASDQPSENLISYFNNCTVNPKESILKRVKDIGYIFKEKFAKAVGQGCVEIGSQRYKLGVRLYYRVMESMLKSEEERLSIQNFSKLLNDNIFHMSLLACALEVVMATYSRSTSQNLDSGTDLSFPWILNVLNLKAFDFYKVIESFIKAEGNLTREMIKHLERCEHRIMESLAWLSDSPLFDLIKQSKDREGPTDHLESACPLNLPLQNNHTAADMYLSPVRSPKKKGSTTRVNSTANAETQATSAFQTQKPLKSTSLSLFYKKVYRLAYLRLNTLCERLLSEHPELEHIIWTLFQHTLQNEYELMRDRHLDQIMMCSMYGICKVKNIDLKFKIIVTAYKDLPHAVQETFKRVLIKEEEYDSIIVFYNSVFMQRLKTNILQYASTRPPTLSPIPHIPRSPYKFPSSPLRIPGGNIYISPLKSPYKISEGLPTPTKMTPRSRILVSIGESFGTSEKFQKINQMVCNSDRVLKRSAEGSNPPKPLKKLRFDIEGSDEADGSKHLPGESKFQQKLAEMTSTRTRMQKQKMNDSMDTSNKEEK
Protocol: Rat RIZ was tested for binding to Rb in HT1080 cells (ATCC #ICCL 121). The cells were grown in DMEM supplemented with […]. Cells were lysed in ELB buffer (50 mM HEPES, pH 7.5, 250 mM NaCl, 0.1% NP-40) supplemented with 5 mM EDTA, 50 mM NaF, 1 mM Na orthovanadate, 1 mM of DTT, aprotinin, leupeptin, and PMSF. The lysate was cleared of cell debris by centrifugation at 12,000 rpm for 10 min in a microfuge.
Binding between 4 μg GST-RIZ (215-462) and Rb from HT1080 cell extract was evaluated by first mixing the two, then binding GST-RIZ and any associated Rb to glutathione-agarose beads. The beads were washed in binding buffer and the bound complexes were eluted by boiling in SDS buffer and analyzed by immunoblotting with anti-Rb antiserum. Immunoblotting was performed by standard techniques (see, for example, Harlow and Lane, supra, 1988).

Molecule: Nc1ncn([C@@H]2O[C@H](CO)[C@@H](O)[C@H]2O)c(=O)n1 [5-azacytidine]
- effect on reduced expression of RIZ D283 transcripts [1]: unaffected

- binding to Rb in vitro (FIG. 4) (56 kD fragment of Rb): specifically binds
B1: RIZ (1-575): fragment of RIZ from amino acid position 1-575 (protein)
chain: MHQNTESVAATETLAEVPEHVLRGLPEEVRLFPSAVDKTRIGVWATKPILKGKKFGPFVGDKKKRSQVRNNVYMWEVYYPNLGWMCIDATDPEKGNWLRYVNWACSGEEQNLFPLEINRAIYYKTLKPIAPGEELLVWYNGEDNPEIAAAIEEERASARSKRSSPKSRRGKKKSHENKNKGIRTHPTQLKASELDSTFANMRGSAEGPKEEDERPLASAPEQPAPLPEVGNQDAVPQVAIPLPACEPQPEVDGKQEVTDCEVNDVEEEELEEEEELEEEEEEELGEDGVEEADMPNESSAKEPEIRCEEKPEDLLEEPQSMSNEAREDSPDVTPPPHTPRAREEANGDVLETFMFPCQHCERKFATKQGLERHMHIHISTINHAFKCKYCGKRFGTQINRRRHERRHETGLKRRPSMTLQSSEDPDDGKGENVTSKDESSPPQLGQDCLILNSEKTSQEVLNSSFVEENGEVKELHPCKYCKKVFGTHTNMRRHQRRVHERHLIPKGVRRKGGLLEEPQPPAEQAPPSQNVYVPSTEPEEEGETDDVYIMDISSNISENLNYYIDGKIQTNSSTS

- binding to 35S-labeled full length RIZ (homo-oligomer formation) (full length RIZ): lack of binding
B2: GST-RIZ (215-462): purified rat RIZ (a.a. position 215-462) fused C-terminal to glutathionine S-transferase (protein)
chain: PLASAPEQPAPLPEVGNQDAVPQVAIPLPACEPQPEVDGKQEVTDCEVNDVEEEELEEEEELEEEEEEELGEDGVEEADMPNESSAKEPEIRCEEKPEDLLEEPQSMSNEAREDSPDVTPPPHTPRAREEANGDVLETFMFPCQHCERKFATKQGLERHMHIHISTINHAFKCKYCGKRFGTQINRRRHERRHETGLKRRPSMTLQSSEDPDDGKGENVTSKDESSPPQLGQDCLILNSEKTSQEVLN
modifications: left off: a dimerising Fc or GST
notes: purified rat RIZ (a.a. position 215-462) fused C-terminal to glutathionine S-transferase
- binding to Rb from HT1080 cell extract [2]: bound to the fastest migrating forms of Rb
